Measurements taken from publication PMC8725580.
Substitutions are numbered along the chain they refer to.

How the values were obtained:
Conditions in all cases: 20 mM Tris pH 7.5, 1 mM CaCl2, 1 mM DTT, 10 ug/ml poly(dI-dC), 100 ug/ml BSA, 37 C, 10 min; probe 0.05 uM (0.1 uM restricted)
[1] = test system: T1, CovR WT (Strep-tagged) (Streptococcus salivarius HSISS4), ORF:ee641105; assay: EMSA
T1 sequence: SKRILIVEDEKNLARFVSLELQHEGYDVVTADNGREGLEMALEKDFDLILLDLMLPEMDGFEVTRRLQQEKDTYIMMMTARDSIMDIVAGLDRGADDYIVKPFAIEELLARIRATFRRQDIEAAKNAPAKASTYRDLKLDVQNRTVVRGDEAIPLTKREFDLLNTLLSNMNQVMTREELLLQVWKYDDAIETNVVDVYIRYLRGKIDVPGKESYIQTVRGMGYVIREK

[2] = test system: T2, CovR D53A D52A (Streptococcus salivarius HSISS4), ORF:ee641105; assay: EMSA
T2 sequence: T1 sequence with D52A

[3] = test system: T3, CovR D53E D52E (Streptococcus salivarius HSISS4), ORF:ee641105; assay: EMSA
T3 sequence: T1 sequence with D52E

[4] = test system: T3, CovR D53E D52E (Streptococcus salivarius HSISS4), ORF:ee641105; assay: competition

For “TTGATACAAAGGAAGGTCTTTCCTATATAAAATGTATAAAAATAGCTTATTTTCACTATTGTTCTGTTAAAAATGCATTAACTGTATATTAATTATATTATAATTATGATATAATGTTTTTAAAATTTCGAAATAAAGGAGTGTCTCTTG (double strand) [PcomR HSISS4 (150 bp)]”, the binding [1] was “binds”, the binding [2] was “binds more weakly” and the binding [3] was “binds”.
With “CCTGTAGTTCCCTTACATACAGTGCGTTACTTTGAGAATGCAGACCGCTCGACGATTCAGATGTTGCATGCCATCTCGCAAAACGTTTCCTTGTCAGAGGCCTCTATTTGTCCTATGAATCAGCTTCTTTTCTCGCCTCAAGAAATGGAA (double strand) [CDSdnaE unlabeled competitor]” the binding [4] was “no binding”.
“AAAAATAATGAGCACTTAAAAGAATGGGATAAGGACAATATCAAAAATGTTGTTCTATCTCATTCTTTTTGTTTGAAACAGTTAATATGGTAGAGGCGTTTTTACTAGTAGCGTATGCTATAATAGAAAGATAGAAAGGAGGCCTTCATG (double strand) [PdnaE unlabeled competitor]” was tested, and the binding [4] was “no binding”.
“CAAGAGACACTCCTTTATTTCGAAATTTTAAAAACATTATATCATAATTATAATATAATTAATATACAGTTAATGCATTTTTAACAGAACAATAGTGAAAATAAGCTATTTTTATACATTTTATATAGGAAAGACCTTCCTTTGTATCAA (double strand) [PcomR unlabeled competitor]” was tested, and the binding [4] was “binds”.
